Measurements taken from the supplement of paper PMC10567573.

B1: RSAD1 (parent)
chain: YCNFNKYIPRRLEEAAMQKCLVTE
B2: GLTSCR2 (parent)
chain: LARRRRRRQARREAEADKPRRLGR

Variants of: B1
Assay: protein stability index of a GFP-peptide fusion (GPS, HEK-293T) (PSI 1-6); higher = more stable
Conditions: c terminus: a fixed tail appended
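Note: lentivirally expressed fusions sorted by FACS into six bins by GFP to DsRed ratio, PSI derived from sequencing read proportions per bin multiplied by bin number.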

Variant	protein stability index
R10S	1.48
R10L	2.63
R10Q	1.96
R10A	1.91
R10E	1.26
R10G	1.24
R10I	2.39
R10N	2.33
R10K	1.64
R10T	1.59
R10F	2.22
R10D	1.92
R10H	1.94
R10M	2.53
R10C	3.8
R10W	3.64
R10P	1.74
R10Y	2.26
Y7V	3.01
Y7P	2.42
Y7T	2.22
Y7E	3.1
Y7A	2.11
Y7Q	1.8
Y7C	2.52

Variant	protein stability index
Y7R	2.31
Y7D	2.49
Y7F	3.98
Y7M	1.79
Y7K	2.42
Y7S	2.51
Y7L	2
Y7H	2.68
Y7G	2.18
Y7N	2.58
Y7I	2.02
I8N	1.68
I8M	1.85
I8T	1.96
I8L	2.05
I8E	2.03
I8Y	1.5
I8P	1.83
I8D	2.3
I8F	2.48
I8G	1.22
I8W	2.26
I8K	1.71
I8S	2.37
I8Q	1.61

Variant	protein stability index
I8V	1.09
I8R	1.67
I8H	2.58
I8A	1.69
R11Q	1.67
R11V	2.41
R11N	1.61
R11A	3.42
R11K	2.14
R11F	3.01
R11L	2.57
R11I	3.24
R11H	2.96
R11W	2.73
R11T	1.95
R11D	1.84
R11G	2.64
R11S	1.44
R11E	2.17
R11C	2.17
R11Y	1.48
P9K	1.73
P9S	2.52
P9N	1.82
P9R	1.37

Variant	protein stability index
P9V	2.71
P9L	2.28
P9A	2.11
P9Q	1.54
P9G	2.12
P9M	1.4
P9C	3.11
P9W	2.6
P9D	2.38
P9E	3.05
P9I	2.85
P9H	2.14
P9Y	2.48
P9T	1.79
Y1V	1.99
Y1K	2.63
Y1A	2.31
Y1Q	3.07
Y1D	2.47
Y1N	2.58
Y1L	2.72
Y1M	2.32
Y1H	2.94
Y1G	1.89
Y1E	2.49

Variant	protein stability index
Y1F	1.68
Y1W	2.65
Y1R	1.96
Y1P	2.27
Y1C	1.97
Y1T	2.38
Y1I	2.76
Y1S	2.46
L12C	1.96
C2D	2.88
C2T	2.2
C2E	2.98
C2W	1.82
C2G	2.48
C2I	1.76
C2H	3.01
C2K	2.31
C2R	2.42
C2M	2.31
C2S	1.84
C2Y	1.89
C2A	2.33
C2N	2.84
C2P	1.44
C2Q	1.87

Variant	protein stability index
C2F	2.35
K6I	2.52
K6E	3.37
K6T	2.79
K6W	2.56
K6G	3.22
K6Q	1.5
K6V	3.4
K6R	1.7
K6F	3.19
K6N	2.56
K6H	3.4
K6C	1.43
K6A	2.11
K6D	2.9
K6M	3.03
K6L	2.58
K6S	2.19
K6Y	3.05
K6P	2.21
F4C	1.94
F4Y	2.23
F4N	2.49
F4R	1.95
F4E	2.07

Variant	protein stability index
F4P	2.82
F4M	2.35
F4H	1.21
F4W	2.56
F4S	2.8
F4V	3.15
F4L	2.08
F4T	2.61
F4I	1.67
F4G	2.66
F4K	2.26
F4Q	2.76
F4D	2.58
N3C	1.95
N3Q	2.04
N3S	1.84
N3E	1.99
N3F	2.4
N3R	1.66
N3A	2.13
N3G	2.94
N3I	1.61
N3L	1.66
N3V	1.85
N3K	1.84

Variant	protein stability index
N3T	2.6
N3H	2.74
N3Y	1.63
N3P	2.03
N3M	2.24
N3W	1.96
N5R	2.48
N5D	1.49
N5T	2.59
N5H	2.31
N5G	2.91
N5W	2.15
N5P	2.07
N5I	2.17
N5S	3.3
N5Q	2.18
N5A	1.68
N5K	2.28
N5V	1.19
N5F	1.25
N5Y	2.75
N5M	2.72
N5L	3.04

Variants of: B2
Assay: as above
Conditions: c terminus: a fixed tail appended

Variant	protein stability index
R6D	4.96
R6Q	5.03
R6I	3.98
R6L	4.6
R6T	4.69
R6M	4.27
R6V	3.6
E15Y	4.21
E15P	4.44
E15S	4.12
E15T	4.22
E15C	4.68
P19N	4.58
P19H	4.09
P19L	3.91
K18R	5.02
K18E	5.03
K18G	4.91
K18T	4.29
K18Y	4.85
K18F	5.1
K18A	4.89
K18C	5.07

Variant	protein stability index
R12M	4.87
R12E	4.29
R12G	4.45
A2K	4.42
A2N	4.9
A2L	3.84
A2Y	4.32
A2H	4.76
A2T	4.28
A2I	4.62
A2F	3.4
A2G	4.78
G23H	4.79
G23D	4.9
G23I	4.53
G23C	4.57
G23Y	4.44
G23N	4.64
G23F	4.44
Q9A	4.17
Q9F	4.27
Q9R	4.95
R21Q	5.13

Variant	protein stability index
R21T	4.83
R21N	4.73
R21S	5.15
R21L	4.36
R21D	4.65
R5H	4.18
R5V	4.54
R5M	4.36
R5W	4.12
R5S	4.42
R5N	5.32
R5F	4.76
A16C	4.48
A16L	3.29
A16W	3.73
A16V	4.69
E13W	4.51
E13N	4.59
E13K	4.37
E13C	5.01
R11H	4.74
R11A	4.53
R11Y	4.95

Variant	protein stability index
R11V	4.91
R11T	5.06
R8D	4.83
R8N	4.48
R8H	4.75
R8Y	4.15
R8S	5.01
L1P	5.18
L1F	4.4
L1K	4.56
L1V	4.98
L1W	4.58
L1R	5.14
R4C	4.34
R4M	4.57
R4E	5.25
R4G	4.3
R4D	4.64
R4N	4.63
R4S	4.17
R4I	4.46
R4T	4.67
A14G	3.91

Variant	protein stability index
A14L	4.33
A14E	5.11
A14V	4.58
A14P	4.97
A14H	4.34
A14T	4.97
A14Y	4.6
R24Q	4.62
R24S	4.85
R24Y	4.8
R24E	4.12
R24K	4.67
R24W	3.84
D17M	4.49
D17W	4.33
D17F	4.73
D17V	3.99
D17Q	4.53
R3S	4.91
R3W	4.4
R3I	4.36
R3N	4.69
R20M	4.38

Variant	protein stability index
R20I	4.36
R20H	5.18
R20Y	4.61
A10Y	4.9
A10S	4.66
A10W	4.73
A10V	4.57
A10K	4.02
A10R	4.95
L22N	4.62
L22H	4.23
L22V	5.4
L22S	5.13
L22K	4.71
L22Q	4.87
L22E	5.15
L22R	5.04
L22I	4.7
R7D	4.88
R7A	4.18
R7K	5.11
